From article PMC5717350, “The human CTF4-orthologue AND-1 interacts with DNA polymerase α/primase via its unique C-terminal HMG box” (Open Biology, 2017)

B2: Full-length His10-myc-tagged AND-1 (1–1129) (natural protein, human, UniProt O75717 1-1129, looked up)
chain: MPATRKPMRYGHTEGHTEVCFDDSGSFIVTCGSDGDVRIWEDLDDDDPKFINVGEKAYSCALKSGKLVTAVSNNTIQVHTFPEGVPDGILTRFTTNANHVVFNGDGTKIAAGSSDFLVKIVDVMDSSQQKTFRGHDAPVLSLSFDPKDIFLASASCDGSVRVWQISDQTCAISWPLLQKCNDVINAKSICRLAWQPKSGKLLAIPVEKSVKLYRRESWSHQFDLSDNFISQTLNIVTWSPCGQYLAAGSINGLIIVWNVETKDCMERVKHEKGYAICGLAWHPTCGRISYTDAEGNLGLLENVCDPSGKTSSSKVSSRVEKDYNDLFDGDDMSNAGDFLNDNAVEIPSFSKGIINDDEDDEDLMMASGRPRQRSHILEDDENSVDISMLKTGSSLLKEEEEDGQEGSIHNLPLVTSQRPFYDGPMPTPRQKPFQSGSTPLHLTHRFMVWNSIGIIRCYNDEQDNAIDVEFHDTSIHHATHLSNTLNYTIADLSHEAILLACESTDELASKLHCLHFSSWDSSKEWIIDLPQNEDIEAICLGQGWAAAATSALLLRLFTIGGVQKEVFSLAGPVVSMAGHGEQLFIVYHRGTGFDGDQCLGVQLLELGKKKKQILHGDPLPLTRKSYLAWIGFSAEGTPCYVDSEGIVRMLNRGLGNTWTPICNTREHCKGKSDHYWVVGIHENPQQLRCIPCKGSRFPPTLPRPAVAILSFKLPYCQIATEKGQMEEQFWRSVIFHNHLDYLAKNGYEYEESTKNQATKEQQELLMKMLALSCKLEREFRCVELADLMTQNAVNLAIKYASRSRKLILAQKLSELAVEKAAELTATQVEEEEEEEDFRKKLNAGYSNTATEWSQPRFRNQVEEDAEDSGEADDEEKPEIHKPGQNSFSKSTNSSDVSAKSGAVTFSSQGRVNPFKVSASSKEPAMSMNSARSTNILDNMGKSSKKSTALSRTTNNEKSPIIKPLIPKPKPKQASAASYFQKRNSQTNKTEEVKEENLKNVLSETPAICPPQNTENQRPKTGFQMWLEENRSNILSDNPDFSDEADIIKEGMIRFRVLSTEERKVWANKAKGETASEGTEAKKRKRVVDESDETENQEEKAKENLNLSKKQKPLDFSTNQKLSAFAFKQE
notes: the oligomeric state was measured only on the SepB constructs; also called His-myc-AND-1; human CTF4-orthologue AND-1; source: Sf9 insect cells (baculovirus, MultiBac), purified (Ni-NTA, Q-Sepharose)
B7: AND-1 SepB (336–826) (domain or fragment, human, UniProt O75717 336-826, looked up)
chain: GDFLNDNAVEIPSFSKGIINDDEDDEDLMMASGRPRQRSHILEDDENSVDISMLKTGSSLLKEEEEDGQEGSIHNLPLVTSQRPFYDGPMPTPRQKPFQSGSTPLHLTHRFMVWNSIGIIRCYNDEQDNAIDVEFHDTSIHHATHLSNTLNYTIADLSHEAILLACESTDELASKLHCLHFSSWDSSKEWIIDLPQNEDIEAICLGQGWAAAATSALLLRLFTIGGVQKEVFSLAGPVVSMAGHGEQLFIVYHRGTGFDGDQCLGVQLLELGKKKKQILHGDPLPLTRKSYLAWIGFSAEGTPCYVDSEGIVRMLNRGLGNTWTPICNTREHCKGKSDHYWVVGIHENPQQLRCIPCKGSRFPPTLPRPAVAILSFKLPYCQIATEKGQMEEQFWRSVIFHNHLDYLAKNGYEYEESTKNQATKEQQELLMKMLALSCKLEREFRCVELADLMTQNAVNLAIKYASRSRKLILAQKLSELAVEKAAELTAT
notes: source: E. coli Rosetta2(DE3), purified (Ni-NTA, Q-Sepharose, TEV cleavage, Superdex 200)

Key:
[1] = target: B2; test: pull-down; competition: Pol α/primase bound to 100 µl Strep-Tactin Superflow resin, 1 nmol AND-1 added together with 100 nmol B (1–78) or Pol α CIP peptide 156–170; eluted with 10 mM desthiobiotin; Coomassie and anti-His western blot; details: both partners purified
[2] = target: T1, Pol α/primase, full-length heterotetrameric complex (Polα-B-PriS-PriL) (human, UniProt P09884 1-1462; Q14181 1-598; P49642 1-420; P49643 1-509); test: pull-down; StrepII-tagged Pol α/primase bound to 100 µl Strep-Tactin Superflow resin, about 2.4 nmol AND-1 added as prey; PD buffer (PBS, 5% glycerol, 0.5 mM TCEP, 0.2% Igepal), 2.5 mg/ml BSA, 4°C; eluted with 10 mM desthiobiotin; Coomassie and anti-His western blot; details: both partners purified
T1 construct: human DNA polymerase α catalytic subunit, residues 1-1462; human DNA polymerase α B subunit, residues 1-598; human primase small subunit PriS, residues 1-420; human primase large subunit PriL, residues 1-509; The wording 'Double StrepII-tagged human DNA polymerase α (1–1462) and its B subunit (1–598)' leaves open whether the B subunit is tagged too; the tag is written on Pol α only; also called …
T1 sequence (P09884 whole entry, chain 1 of 3, the tested form may be a part): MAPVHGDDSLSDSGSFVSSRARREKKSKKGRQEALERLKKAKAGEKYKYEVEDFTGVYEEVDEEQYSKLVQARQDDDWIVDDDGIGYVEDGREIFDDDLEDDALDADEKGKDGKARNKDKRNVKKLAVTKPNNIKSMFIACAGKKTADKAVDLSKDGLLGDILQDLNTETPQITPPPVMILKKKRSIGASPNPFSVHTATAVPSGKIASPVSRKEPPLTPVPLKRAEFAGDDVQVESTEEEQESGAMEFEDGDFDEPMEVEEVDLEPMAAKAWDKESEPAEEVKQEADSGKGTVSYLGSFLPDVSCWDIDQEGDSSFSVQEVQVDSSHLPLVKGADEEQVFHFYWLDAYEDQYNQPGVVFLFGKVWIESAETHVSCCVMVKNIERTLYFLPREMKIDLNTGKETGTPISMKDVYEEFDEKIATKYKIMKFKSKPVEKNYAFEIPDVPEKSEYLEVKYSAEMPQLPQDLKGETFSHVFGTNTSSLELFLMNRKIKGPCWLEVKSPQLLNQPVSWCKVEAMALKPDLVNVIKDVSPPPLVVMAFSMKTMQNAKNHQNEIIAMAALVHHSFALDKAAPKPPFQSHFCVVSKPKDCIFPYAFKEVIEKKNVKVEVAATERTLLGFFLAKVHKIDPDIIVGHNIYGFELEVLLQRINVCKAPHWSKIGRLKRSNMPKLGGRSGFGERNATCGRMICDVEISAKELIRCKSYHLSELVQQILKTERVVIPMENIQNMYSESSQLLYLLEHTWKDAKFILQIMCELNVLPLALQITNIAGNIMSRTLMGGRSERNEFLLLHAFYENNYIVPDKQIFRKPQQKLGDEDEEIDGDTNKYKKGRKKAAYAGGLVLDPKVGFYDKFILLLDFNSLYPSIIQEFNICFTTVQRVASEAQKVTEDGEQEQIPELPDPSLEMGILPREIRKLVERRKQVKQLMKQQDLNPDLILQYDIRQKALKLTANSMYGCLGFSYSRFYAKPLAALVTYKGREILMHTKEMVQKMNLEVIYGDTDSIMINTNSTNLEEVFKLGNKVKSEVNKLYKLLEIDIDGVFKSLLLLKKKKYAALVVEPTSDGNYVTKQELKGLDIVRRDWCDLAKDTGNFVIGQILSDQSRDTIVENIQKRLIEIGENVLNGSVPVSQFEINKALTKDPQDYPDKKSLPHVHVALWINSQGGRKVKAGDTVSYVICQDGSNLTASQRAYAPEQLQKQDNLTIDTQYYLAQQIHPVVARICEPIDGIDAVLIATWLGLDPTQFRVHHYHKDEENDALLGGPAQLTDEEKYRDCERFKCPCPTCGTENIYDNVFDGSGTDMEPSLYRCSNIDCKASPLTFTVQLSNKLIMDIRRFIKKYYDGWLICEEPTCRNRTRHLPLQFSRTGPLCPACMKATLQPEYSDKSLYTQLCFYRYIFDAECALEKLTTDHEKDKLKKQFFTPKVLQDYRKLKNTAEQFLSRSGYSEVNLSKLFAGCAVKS
T1 sequence (P49642 whole entry, chain 3 of 3, the tested form may be a part): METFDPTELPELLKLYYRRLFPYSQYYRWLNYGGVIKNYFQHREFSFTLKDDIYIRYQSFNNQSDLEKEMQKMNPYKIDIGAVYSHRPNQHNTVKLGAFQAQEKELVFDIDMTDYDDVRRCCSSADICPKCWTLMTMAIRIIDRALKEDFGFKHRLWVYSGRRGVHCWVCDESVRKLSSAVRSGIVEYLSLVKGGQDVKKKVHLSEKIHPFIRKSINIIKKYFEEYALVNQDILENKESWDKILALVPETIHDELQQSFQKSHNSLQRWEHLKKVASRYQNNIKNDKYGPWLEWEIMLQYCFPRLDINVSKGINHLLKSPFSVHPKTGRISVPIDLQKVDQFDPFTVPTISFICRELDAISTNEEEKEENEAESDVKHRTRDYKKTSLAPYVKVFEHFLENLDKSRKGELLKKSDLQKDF
T1 sequence (P49643 whole entry, chain 4 of 3, the tested form may be a part): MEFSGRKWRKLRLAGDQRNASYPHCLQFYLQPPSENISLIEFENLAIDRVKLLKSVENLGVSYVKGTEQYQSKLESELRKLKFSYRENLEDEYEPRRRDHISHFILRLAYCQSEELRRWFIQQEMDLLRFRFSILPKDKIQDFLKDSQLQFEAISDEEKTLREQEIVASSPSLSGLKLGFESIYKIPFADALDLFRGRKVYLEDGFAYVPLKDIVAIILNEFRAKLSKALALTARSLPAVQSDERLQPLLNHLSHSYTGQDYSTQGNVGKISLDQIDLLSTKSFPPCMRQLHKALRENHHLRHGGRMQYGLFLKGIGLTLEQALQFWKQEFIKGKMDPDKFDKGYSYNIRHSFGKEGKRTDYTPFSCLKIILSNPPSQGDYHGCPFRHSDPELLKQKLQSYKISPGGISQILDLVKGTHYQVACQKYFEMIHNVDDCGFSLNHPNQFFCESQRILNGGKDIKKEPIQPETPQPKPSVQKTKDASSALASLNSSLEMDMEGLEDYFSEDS

[3] = target: B7; test: pull-down; GST-Pol α fusion proteins bound to 100 µl glutathione agarose, 20 nmol AND-1 SepB added as prey; PD buffer, 2.5 mg/ml BSA, 4°C; eluted with 20 mM reduced glutathione; Coomassie; details: both partners purified
[4] = target: T2, GST-BNTD (B subunit amino acids 1–78) (human, UniProt Q14181 1-78); test: pull-down; MBP-AND-1 constructs bound to 100 µl amylose resin, 25 nmol GST-B added as prey; PD buffer, 2.5 mg/ml BSA, 4°C; eluted with 20 mM maltose; Coomassie; details: both partners purified
T2 construct: human DNA polymerase α B subunit, residues 1-78 (four-helix bundle N-terminal domain); also called GST-B(1–78); B N-terminal domain; source: E. coli Rosetta2(DE3), purified (Ni-NTA agarose)
T2 sequence (looked up): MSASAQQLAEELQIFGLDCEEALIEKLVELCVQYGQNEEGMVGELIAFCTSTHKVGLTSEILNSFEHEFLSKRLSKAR

[5] = target: T3, GST-BNTD (1–78) A47E (human, UniProt Q14181 1-78, A47E); test: as above; details: both partners purified
T3 construct: human DNA polymerase α B subunit, residues 1-78; also called A47E mutant GST-BNTD; source: E. coli Rosetta2(DE3), purified (Ni-NTA agarose)
T3 sequence (looked up): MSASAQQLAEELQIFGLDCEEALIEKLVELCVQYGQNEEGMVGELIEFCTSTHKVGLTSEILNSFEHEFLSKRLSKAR

[6] = target: the molecule itself; test: crystal structure; AND-1 329–826 crystallised at 9 mg/ml; space group F432, one protomer per asymmetric unit, trimer by crystallographic symmetry; 2.5 Å
[7] = target: B2; test: pull-down; GST-B fusion proteins (in figure 6a also GST-Pol α CIP, equimolar) bound to 100 µl glutathione agarose, 2.2 nmol AND-1 (1–1129, 316–1129 or 336–826) added as prey; PD buffer, 2.5 mg/ml BSA, 4°C; Coomassie, anti-His western blot in figure 6a; details: both partners purified
[8] = target: the molecule itself; test: SEC-MALS; 100 µl AND-1 336–826 at 2–4 mg/ml on Superdex S200 10/300 GL; 25 mM HEPES pH 7.0, 200 mM NaCl

B1: B (1–78), free BNTD used as competitor (domain or fragment, human, UniProt Q14181 1-78, looked up)
chain: MSASAQQLAEELQIFGLDCEEALIEKLVELCVQYGQNEEGMVGELIAFCTSTHKVGLTSEILNSFEHEFLSKRLSKAR
notes: human DNA polymerase α B subunit, residues 1-78; it names the protein 'B (1–78)' and 'free BNTD'; also called purified BNTD; source: E. coli Rosetta2(DE3), purified
- binding result [1]: binds

Binder: B2
- binding result [2]: binds

B3: GST-Pol α (148–171), wild type (domain or fragment, human)
chain: DKAVDLSKDGLLGDILQDLNTETP
notes: also called GST-Pol α CIP; GST-tagged Pol α CIP; source: E. coli Rosetta2(DE3), purified (Ni-NTA agarose); not shown: His tag (from the purification on Ni-NTA)
- binding result [3]: binds

B4: MBP-tagged AND-1 HMG box (1017–1076), wild type (domain or fragment, human, UniProt O75717 1017-1076, looked up)
chain: RPKTGFQMWLEENRSNILSDNPDFSDEADIIKEGMIRFRVLSTEERKVWANKAKGETASE
notes: human AND-1 HMG box, residues 1017-1076; also called AND-1(1017–1076); source: E. coli Rosetta2(DE3), purified (Ni-NTA, Superdex 200)
- binding result [4]: binds
- binding result [5]: binds

B5: AND-1 (329–826), SepB domain (domain or fragment, human, UniProt O75717 329-826, looked up)
chain: GDDMSNAGDFLNDNAVEIPSFSKGIINDDEDDEDLMMASGRPRQRSHILEDDENSVDISMLKTGSSLLKEEEEDGQEGSIHNLPLVTSQRPFYDGPMPTPRQKPFQSGSTPLHLTHRFMVWNSIGIIRCYNDEQDNAIDVEFHDTSIHHATHLSNTLNYTIADLSHEAILLACESTDELASKLHCLHFSSWDSSKEWIIDLPQNEDIEAICLGQGWAAAATSALLLRLFTIGGVQKEVFSLAGPVVSMAGHGEQLFIVYHRGTGFDGDQCLGVQLLELGKKKKQILHGDPLPLTRKSYLAWIGFSAEGTPCYVDSEGIVRMLNRGLGNTWTPICNTREHCKGKSDHYWVVGIHENPQQLRCIPCKGSRFPPTLPRPAVAILSFKLPYCQIATEKGQMEEQFWRSVIFHNHLDYLAKNGYEYEESTKNQATKEQQELLMKMLALSCKLEREFRCVELADLMTQNAVNLAIKYASRSRKLILAQKLSELAVEKAAELTAT
notes: human AND-1, residues 329-826 (SepB domain); residues 329-420 and 824-826 not in the final crystallographic model; Trimer arises from crystallographic symmetry (one protomer per asymmetric unit); also called AND-1 SepB
- binding result [6]: binds

B6: GST-B subunit (1–104) (domain or fragment, human, UniProt Q14181 1-104, looked up)
chain: MSASAQQLAEELQIFGLDCEEALIEKLVELCVQYGQNEEGMVGELIAFCTSTHKVGLTSEILNSFEHEFLSKRLSKARHSTCKDSGHAGARDIVSIQELIEVEE
notes: human DNA polymerase α B subunit, residues 1-104; also called GST-B fusion protein 1–104; source: E. coli Rosetta2(DE3), purified (Ni-NTA agarose)
- binding result [7]: binds

Binder: B7
- stoichiometry N [8]: 3

B8: GST-B subunit (1–156) (domain or fragment, human, UniProt Q14181 1-156, looked up)
chain: MSASAQQLAEELQIFGLDCEEALIEKLVELCVQYGQNEEGMVGELIAFCTSTHKVGLTSEILNSFEHEFLSKRLSKARHSTCKDSGHAGARDIVSIQELIEVEEEEEILLNSYTTPSKGSQKRAISTPETPLTKRSVSTRSPHQLLSPSSFSPSAT
notes: human DNA polymerase α B subunit, residues 1-156; also called GST-B fusion protein 1–156; source: E. coli Rosetta2(DE3), purified (Ni-NTA agarose)
- binding result [7]: binds
